Laboratory results: publication PMC8989531 (Nucleic Acids Research, 2022)

T1: RecD2-His (Bacillus subtilis RecD2 helicase with C-terminal His tag) (B. subtilis, UniProt O34481 1-798)
T1 sequence (looked up): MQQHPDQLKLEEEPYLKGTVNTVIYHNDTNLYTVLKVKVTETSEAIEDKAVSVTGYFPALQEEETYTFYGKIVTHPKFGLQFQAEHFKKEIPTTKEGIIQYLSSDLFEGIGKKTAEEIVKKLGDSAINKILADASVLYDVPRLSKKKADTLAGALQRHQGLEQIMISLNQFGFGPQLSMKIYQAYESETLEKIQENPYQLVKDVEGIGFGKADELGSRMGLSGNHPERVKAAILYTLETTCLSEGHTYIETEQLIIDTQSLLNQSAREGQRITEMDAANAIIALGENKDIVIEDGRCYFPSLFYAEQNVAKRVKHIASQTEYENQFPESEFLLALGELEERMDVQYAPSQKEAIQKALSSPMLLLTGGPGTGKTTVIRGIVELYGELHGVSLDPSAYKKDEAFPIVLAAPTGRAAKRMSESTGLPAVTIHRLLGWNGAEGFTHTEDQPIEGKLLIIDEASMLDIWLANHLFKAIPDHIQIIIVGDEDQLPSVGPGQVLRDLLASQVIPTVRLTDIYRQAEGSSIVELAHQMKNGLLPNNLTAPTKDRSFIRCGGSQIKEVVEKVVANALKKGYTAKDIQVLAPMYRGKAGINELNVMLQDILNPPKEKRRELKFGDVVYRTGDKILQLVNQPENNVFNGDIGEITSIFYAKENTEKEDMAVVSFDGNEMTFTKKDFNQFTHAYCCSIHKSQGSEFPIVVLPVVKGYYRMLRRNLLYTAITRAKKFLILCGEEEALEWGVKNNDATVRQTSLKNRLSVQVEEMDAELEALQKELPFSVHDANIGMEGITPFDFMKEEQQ

B1: SsbA (Bacillus subtilis single-stranded DNA binding protein) (natural protein, B. subtilis, UniProt P37455 1-172, looked up)
chain: MLNRVVLVGRLTKDPELRYTPNGAAVATFTLAVNRTFTNQSGEREADFINCVTWRRQAENVANFLKKGSLAGVDGRLQTRNYENQQGQRVFVTEVQAESVQFLEPKNGGGSGSGGYNEGNSGGGQYFGGGQNDNPFGGNQNNQRRNQGNSFNDDPFANDGKPIDISDDDLPF
B2: RecA (Bacillus subtilis recombinase) (natural protein, B. subtilis, UniProt P16971 1-348, looked up)
chain: MSDRQAALDMALKQIEKQFGKGSIMKLGEKTDTRISTVPSGSLALDTALGIGGYPRGRIIEVYGPESSGKTTVALHAIAEVQQQGGQAAFIDAEHALDPVYAQKLGVNIEELLLSQPDTGEQALEIAEALVRSGAVDIVVVDSVAALVPKAEIEGDMGDSHVGLQARLMSQALRKLSGAINKSKTIAIFINQIREKVGVMFGNPETTPGGRALKFYSSVRLEVRRAEQLKQGNDVMGNKTKIKVVKNKVAPPFRTAEVDIMYGEGISKEGEIIDLGTELDIVQKSGSWYSYEEERLGQGRENAKQFLKENKDIMLMIQEQIREHYGLDNNGVVQQQAEETQEELEFEE

Biological target: T1, RecD2-His (Bacillus subtilis RecD2 …)
Assay: far-Western, overlay or dot blot

| Binder | binding result |
| --- | --- |
| B1 | binds |
| B2 | binds |
